Reference: the supplement of paper PMC9112550, “Optimization of the antimicrobial peptide Bac7 by deep mutational scanning” (BMC Biology, 2022)

Tested on: Escherichia coli TOP10
Experiment: shrunken log2 fold change of peptide-encoding DNA abundance (4.5 h post-induction vs induction); higher = less antimicrobial activity (less host growth inhibition)
Settings: time post-induction: 4.5 h; library: site-saturation at positions 5, 18, 19, 20
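Also: peptides expressed intracellularly from a pBAD plasmid library in pooled LB shake-flask culture, induced with 0.3% L-arabinose, DNA abundance read by NGS, three biological replicates, DESeq2 with apeglm shrinkage.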

| Sequence | shrunken log2 fold change |
| --- | --- |
| RRIRMRPPRLPRPRPRPIDWPRP | 0.483 |
| RRIRSRPPRLPRPRPRPKYKPRP | -0.422 |
| RRIRVRPPRLPRPRPRPFSPPRP | -0.363 |
| RRIRRRPPRLPRPRPRPCKIPRP | 0.0604 |
| RRIRKRPPRLPRPRPRPYAQPRP | -0.00925 |
| RRIRMRPPRLPRPRPRPGHKPRP | -0.231 |
| RRIRIRPPRLPRPRPRPGLYPRP | -0.0503 |
| RRIRARPPRLPRPRPRPVVIPRP | 0.206 |
| RRIRARPPRLPRPRPRPPFRPRP | 0.977 |
| RRIRSRPPRLPRPRPRPGLHPRP | 0.186 |
| RRIRSRPPRLPRPRPRPIRAPRP | 0.106 |
| RRIRVRPPRLPRPRPRPCCQPRP | -0.19 |
| RRIRMRPPRLPRPRPRPCFTPRP | -0.123 |
| RRIRSRPPRLPRPRPRPHCTPRP | -0.298 |
| RRIRQRPPRLPRPRPRPMDRPRP | 0.0291 |
| RRIRWRPPRLPRPRPRPCYDPRP | -0.00133 |
| RRIRERPPRLPRPRPRPQCYPRP | -0.186 |
| RRIRFRPPRLPRPRPRPSLCPRP | -0.348 |
| RRIRGRPPRLPRPRPRPQMDPRP | 0.291 |
| RRIRYRPPRLPRPRPRPDPDPRP | -0.162 |
| RRIRGRPPRLPRPRPRPSMCPRP | 0.37 |
| RRIRERPPRLPRPRPRPWYRPRP | -0.217 |
| RRIRCRPPRLPRPRPRPSFEPRP | -0.508 |
| RRIRSRPPRLPRPRPRPTELPRP | -0.0967 |
| RRIRNRPPRLPRPRPRPLREPRP | 0.128 |

| Sequence | shrunken log2 fold change |
| --- | --- |
| RRIRCRPPRLPRPRPRPLSVPRP | -0.481 |
| RRIRGRPPRLPRPRPRPERAPRP | 1.4 |
| RRIRVRPPRLPRPRPRPISSPRP | -0.136 |
| RRIRRRPPRLPRPRPRPQNKPRP | -0.172 |
| RRIRKRPPRLPRPRPRPFCRPRP | 0.558 |
| RRIRCRPPRLPRPRPRPLQEPRP | 0.299 |
| RRIRMRPPRLPRPRPRPGPIPRP | 0.115 |
| RRIRYRPPRLPRPRPRPEWGPRP | -0.169 |
| RRIRGRPPRLPRPRPRPILNPRP | -0.0611 |
| RRIRQRPPRLPRPRPRPPTAPRP | 0.504 |
| RRIRTRPPRLPRPRPRPDKSPRP | -0.0816 |
| RRIRYRPPRLPRPRPRPPAIPRP | -0.319 |
| RRIRIRPPRLPRPRPRPGDCPRP | -0.185 |
| RRIRERPPRLPRPRPRPSNMPRP | -0.683 |
| RRIRPRPPRLPRPRPRPHVTPRP | -0.0437 |
| RRIRKRPPRLPRPRPRPSWNPRP | -0.15 |
| RRIRHRPPRLPRPRPRPGLCPRP | 0.101 |
| RRIRYRPPRLPRPRPRPWVAPRP | -0.481 |
| RRIRHRPPRLPRPRPRPIEHPRP | -0.394 |
| RRIRNRPPRLPRPRPRPAQWPRP | 0.525 |
| RRIRCRPPRLPRPRPRPHDSPRP | -0.298 |
| RRIRSRPPRLPRPRPRPCYMPRP | -0.562 |
| RRIRLRPPRLPRPRPRPMGNPRP | -0.147 |
| RRIRVRPPRLPRPRPRPCYIPRP | -0.281 |
| RRIRDRPPRLPRPRPRPSLDPRP | -0.0616 |

| Sequence | shrunken log2 fold change |
| --- | --- |
| RRIRIRPPRLPRPRPRPCASPRP | 0.02 |
| RRIRARPPRLPRPRPRPKCCPRP | 0.165 |
| RRIRPRPPRLPRPRPRPHNQPRP | -0.378 |
| RRIRSRPPRLPRPRPRPNEYPRP | -1.02 |
| RRIRHRPPRLPRPRPRPGIHPRP | -0.2 |
| RRIRARPPRLPRPRPRPVNFPRP | 0.629 |
| RRIRIRPPRLPRPRPRPAVSPRP | -0.0873 |
| RRIRYRPPRLPRPRPRPSCNPRP | -1.43 |
| RRIRYRPPRLPRPRPRPGNWPRP | -0.163 |
| RRIRTRPPRLPRPRPRPGDEPRP | 0.195 |
| RRIRTRPPRLPRPRPRPGDRPRP | 0.0976 |
| RRIRYRPPRLPRPRPRPMMPPRP | -0.0554 |
| RRIRKRPPRLPRPRPRPQRMPRP | 0.408 |
| RRIRIRPPRLPRPRPRPGADPRP | -0.193 |
| RRIRIRPPRLPRPRPRPFDWPRP | 0.305 |
| RRIRSRPPRLPRPRPRPRGVPRP | 0.749 |
| RRIRFRPPRLPRPRPRPELDPRP | 0.0203 |
| RRIRKRPPRLPRPRPRPMGGPRP | 0.0559 |
| RRIRERPPRLPRPRPRPFGHPRP | -0.224 |
| RRIRMRPPRLPRPRPRPADDPRP | -0.00235 |
| RRIRSRPPRLPRPRPRPWNWPRP | -0.328 |
| RRIRFRPPRLPRPRPRPQDTPRP | -0.46 |
| RRIRARPPRLPRPRPRPMTAPRP | 0.433 |
| RRIRMRPPRLPRPRPRPKLCPRP | 0.438 |
| RRIRSRPPRLPRPRPRPPRDPRP | 1.34 |

| Sequence | shrunken log2 fold change |
| --- | --- |
| RRIRDRPPRLPRPRPRPRQHPRP | 0.153 |
| RRIRTRPPRLPRPRPRPMEPPRP | 0.045 |
| RRIRMRPPRLPRPRPRPWKVPRP | -0.0135 |
| RRIRWRPPRLPRPRPRPYDHPRP | -0.207 |
| RRIRPRPPRLPRPRPRPQGSPRP | 0.0552 |
| RRIRVRPPRLPRPRPRPHLWPRP | -0.0616 |
| RRIRDRPPRLPRPRPRPYNSPRP | -0.237 |
| RRIRGRPPRLPRPRPRPEWGPRP | 0.544 |
| RRIRQRPPRLPRPRPRPQYMPRP | -0.587 |
| RRIRPRPPRLPRPRPRPYEMPRP | -0.281 |
| RRIRARPPRLPRPRPRPLACPRP | 0.695 |
| RRIRYRPPRLPRPRPRPWLLPRP | -1.51 |
| RRIRWRPPRLPRPRPRPMTDPRP | 0.0543 |
| RRIRFRPPRLPRPRPRPHETPRP | -0.347 |
| RRIRRRPPRLPRPRPRPAWPPRP | 0.446 |
| RRIRNRPPRLPRPRPRPVLDPRP | -0.299 |
| RRIRKRPPRLPRPRPRPHITPRP | -0.167 |
| RRIRMRPPRLPRPRPRPKSGPRP | -0.101 |
| RRIRFRPPRLPRPRPRPTWDPRP | 0.0928 |
| RRIRARPPRLPRPRPRPCKYPRP | -0.201 |
| RRIRNRPPRLPRPRPRPSVGPRP | -0.0175 |
| RRIRRRPPRLPRPRPRPECRPRP | 0.272 |
| RRIRPRPPRLPRPRPRPSTCPRP | -0.11 |
| RRIRIRPPRLPRPRPRPCDEPRP | 0.0357 |
| RRIRTRPPRLPRPRPRPNTIPRP | -0.596 |

| Sequence | shrunken log2 fold change |
| --- | --- |
| RRIRIRPPRLPRPRPRPMNPPRP | -0.372 |
| RRIRGRPPRLPRPRPRPKHPPRP | 0.608 |
| RRIRLRPPRLPRPRPRPMCNPRP | 0.107 |
| RRIRDRPPRLPRPRPRPCIWPRP | 0.033 |
| RRIRMRPPRLPRPRPRPMFNPRP | -0.343 |
| RRIRCRPPRLPRPRPRPACEPRP | 0.112 |
| RRIRDRPPRLPRPRPRPPYPPRP | 0.109 |
| RRIRDRPPRLPRPRPRPEARPRP | 1.96 |
| RRIRSRPPRLPRPRPRPSHKPRP | -0.658 |
| RRIRKRPPRLPRPRPRPPAAPRP | 0.932 |
| RRIRTRPPRLPRPRPRPLQVPRP | -0.219 |
| RRIRYRPPRLPRPRPRPWFHPRP | -0.17 |
| RRIRRRPPRLPRPRPRPLIGPRP | -0.0159 |
| RRIRLRPPRLPRPRPRPVSNPRP | -0.837 |
| RRIRGRPPRLPRPRPRPDVWPRP | 1.36 |
| RRIRWRPPRLPRPRPRPMAKPRP | 0.148 |
| RRIRVRPPRLPRPRPRPYELPRP | -0.401 |
| RRIRTRPPRLPRPRPRPHLFPRP | -0.111 |
| RRIRVRPPRLPRPRPRPLSGPRP | 0.179 |
| RRIRWRPPRLPRPRPRPENCPRP | 0.138 |
| RRIRGRPPRLPRPRPRPQMAPRP | 0.923 |
| RRIRARPPRLPRPRPRPLENPRP | 0.595 |
| RRIRNRPPRLPRPRPRPQCHPRP | -0.42 |
| RRIRFRPPRLPRPRPRPFNFPRP | -1.17 |
| RRIRARPPRLPRPRPRPWLDPRP | 0.0658 |

| Sequence | shrunken log2 fold change |
| --- | --- |
| RRIRKRPPRLPRPRPRPQFRPRP | 0.0319 |
| RRIRYRPPRLPRPRPRPRSEPRP | 0.0596 |
| RRIRNRPPRLPRPRPRPMYHPRP | -0.248 |
| RRIRCRPPRLPRPRPRPYYNPRP | -1.2 |
| RRIRCRPPRLPRPRPRPCDQPRP | 0.143 |
| RRIRMRPPRLPRPRPRPDNDPRP | 1.41 |
| RRIRLRPPRLPRPRPRPNCDPRP | -0.00298 |
| RRIRLRPPRLPRPRPRPKMNPRP | -0.37 |
| RRIRHRPPRLPRPRPRPASAPRP | 0.0183 |
| RRIRGRPPRLPRPRPRPSVGPRP | 0.333 |
| RRIRGRPPRLPRPRPRPDQFPRP | 0.704 |
| RRIRGRPPRLPRPRPRPGPKPRP | 0.808 |
| RRIRSRPPRLPRPRPRPACIPRP | -0.31 |
| RRIRFRPPRLPRPRPRPWYVPRP | -0.757 |
| RRIRFRPPRLPRPRPRPCIYPRP | -0.191 |
| RRIRNRPPRLPRPRPRPYYIPRP | -0.131 |
| RRIRTRPPRLPRPRPRPCMLPRP | 0.0676 |
| RRIRTRPPRLPRPRPRPLVYPRP | -0.917 |
| RRIRWRPPRLPRPRPRPWMSPRP | -0.353 |
| RRIRGRPPRLPRPRPRPYTWPRP | 0.0845 |
| RRIRVRPPRLPRPRPRPGGVPRP | 0.224 |
| RRIRFRPPRLPRPRPRPIVEPRP | 0.0776 |
| RRIRRRPPRLPRPRPRPTWAPRP | 0.7 |
| RRIRHRPPRLPRPRPRPWFIPRP | -0.775 |
| RRIRERPPRLPRPRPRPDAKPRP | 0.0113 |
